# Source: a protein production outcome set (Wang et al. 2014)
# Assay: label from the status in PepcDB records
# 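Also: failed if final PepcDB status was selected cloned or expressed and not failed if soluble or beyond.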
row,Sequence,protein production
1,ESKSPIIQNVLSYITEHFSEGMSLKTLGNDFHINAVYLGQLFQKEMGEHFTDYLNRYRVNYAKEELLQTKDNLTIIAGKSGYTDMAYFYRQFKKHTGETPNRYRKIHQ,not failed
2,ESPLYCVMAKADGPVQGLADLKGRKVGFSVAGIEEALLHTMLRTNGVEPAEVEFVNVNFALTPALASGQADAVAGAFRNFELHQIAAAGSEGRCFLPEENGVPSYEELIYVANPDRMDREKVVAFLKVTERAAGFIADHPEEAWEIFRG,failed
3,ESRLDRILESGVLRVATTGDYKPFSYRTEEGGYAGFDVDMAQRLAESLGAKLVVVPTSWPNLMRDFADDRFDIAMSGISINLERQRQAYFSIPYLRDGKTPITLCSEEARFQTLEQIDQPGVTAIVNPGGTNEKFARANLKKARILVHPDNVTIFQQIVDGKADLMMTDAIEARLQSRLHPELCAVHPQQPFDFAEKAYLLPRDEAFKRYVDQWLHIAEQSGLLRQ,failed
4,ETNEITIGITVTTTGPAAALGIPERNALEFVAKEIGGHPLKVIVLDDGGDPTAATTNARRFVTESKADVIMGSSVTPPTVAVSNVANEAQVPHIALAPLPITPERAKWSVAMPQPIPIMGKVLYEHMKKNNIKTVGYIGYSDSYGDLWFNDLKKQGEAMGLKIVAEERFARPDTSVAGQVLKLVAANPDAILVGASGTAAALPQTSLRERGYKGLIYQTHGAASMDFIRIAGKSAEGVLMASGPVMDPEGQDDSALTKKPGLELNTAYEAKYGPNSRSQFAAHSFDAFKVLERVVPVALKTAKPGTQEFREAIRKALVSEKDIAASQGVYSFTETDRYGLDDRSRILLTVKDGKYVMVK,not failed
5,ETQPESAAFTAPSTDNPIRINFNENPLGMSPKAQAAARDAVVKANRYAKNEILMLGNKLAAHHQVEAPSILLTAGSSEGIRAAIEAYASLEAQLVIPELTYGDGEHFAKIAGMKVTKVKMLDNWAFDIEGLKAAVAAYSGPSIVYLVNPNNPTGTITPADVIEPWIASKPANTMFIVDEAYAEFVNDPRFRSISPMITQGAENIILLKTFSKIHAMAGMRVGYAVAHPTVIALMGRYVAGEKINFSGVDAALASMNDSAFITYSKKSNDVSRQILLKALEDLKLPYLPSEGNFVFHQLVVPLKDYQTHMADAGVLIGRAFPPADNWCRISLGTPQEMQWVADTMREFRKKSWI,not failed
6,EVPIGFDTDELSFDMSLVLLTGDMQTKASDPNYTYATTEELTIQNCHVAVFDKDGKRIYFKNFYSKDLGEMKTIGNLSGYELQLEGVRTFGKEDKKVSVLVVANANNANNSPFDNLTTYDGVDNSYTAKTIAKGPVTASLLVKIGKSETTLKYNQDNAPVTVSLIQLSAKIEYTGVYKKENGELLEGFSLTKVAGLNASSKITIFNTSAVENGAFSDLAYPTTKPVTFYTYEISDAFKEVILSVQSGVEPKEYPFPANKFIKGNYYRIKGLKSSTEIEWVLENVEDKEVTLDPFE,not failed
7,EVSYAKERVRLITASGRTHDLTVELAVDPSQREQGLMYRRQMAPDHGMLFDFGETRPVMMWMKNTYLPLDMLFIASDGTIRTIHENAVPHSEAIIDSREPVAYVLELNAGTVKRLGVSPGDRLEGAGLPATKRAN,not failed
8,FDFKAGEEVLARWTDCRYYPAKIEAINKEGTFTVQFYDGVIRCLKRMHIKAMPEDAKGQDWIALVKA,not failed
9,FDQAPVLVVGDVMLDRYWHGGTSRISPEAPVPVVKVDQIEDRPGGAANVALNIAALGAPASLVGVTGDDEAAESLTNSLKAAGVVARFQRIADQPTIVKLRVMSRHQQLLRIDFEEPFNTDPLALSAEVYSLLDGIKVLVLSDYGKGALKNHQALIQAARKRGIPVLADPKGKDFAIYRGASLITPNLSEFEAIVGHCEDEAQLVTKGAQLMQELDLGALLVTRGEHGMTLLRPDQQALHLPARAREVFDVTGAGDTVISTLAAAIAAGEELPHAVALANLAAGIVVGKLGTAAISAPELRRAIQR,failed
10,FEDFNTNPYQPSKVPASNLLSTMFNVYACPQQNACQEINCMWASFSGQVTATANWSFGKNIFAYYNASEGHNDSSWGRLYGYIYPSFFLVENSTEKKGVIYAMAQLTRVYGMQLLASLQGPIPYTQMKAGETEAPYDNEQTVWHAMFDDLDNAITILKSAATFGVNQDLAVVDQFYKGDCSKWLKFANTLKLRMAIRISGVEPEYAQTKAQEAVLGGVMESVGDSSYDTTNGGINENGYAIVSGWPEVRANACLVSYMNGYNDPRRPAYFTPQTQTAAGGYVGVRSGSAEIPEPTVYANYSKLFIATDKTLPQPVMYAAEAAFLRAEGALKGWNMGGDAKTFYEKGVRLSFEEFGVSGADDYLADATSIPGNYVDNLIAGHTGNNYTNQSSITIKWEDGADDAKKLERVLTQKWIACYPDPMNGWADFRRTGYPRIFPATESMNADCNTGRGQRRLRFTRSEYNNNKANVEAAVSMLSNGKDSNGTDLWWAMKENGTY,not failed
11,FFKGAASSVLELTEAELVTAEAVRSVWQRILPKVLEVEDSTDFFKSGAASVDVVRLVEEVKELCDGLELENEDVYMASTFGDFIQLLVRKLRGDDEE,not failed
12,FIQIKPGYDYPIISALRAIISGNADAVPDEVGGVSKEKLVELAETMKNAKYGAVLYGLGVTQSRGRDRNVENAVKLIQLLNRHTRWVIWPMRGHYNVVGAGEVPAWEVGYQYAIDFSRGYPR,failed
13,FLNSVLNFSLFLLNAHDSYLEVMRNRDTLSRMISSLEEVLDVSRRAELIEKTLHYLKDMFPGIVLSSVSLLEDGKIKTFFLKNGQIEVVNLKRGIVVKAFETKRDLFVNDVRDFPEFYDVTNGRTRSAAAIFFEYENTPLVLEIEKDSEITEYELSSLKMMARILAIFFSR,failed
14,FQQTQDWVFIIDEKISRITANQSMRAVFDWPEEEFDFSDKLLGVSQKRRSFYRKLMLSLKEGEHWRGEELIVTANKDEYHVIINVTVGFSSVTNALHYLFVLTDIS,failed
15,FRPHFLQAPGDLTVQEGKLCRMDCKVSGLPTPDLSWQLDGKPVRPDSAHKMLVRENGVHSLIIEPVTSRDAGIYTCIATNRAGQNSFSLELVVAAKE,not failed
16,FSKTQRWAEPGEPICVVCGRYGEYICDKTDEDVCSLECKAKHLLQVKEKEEKS,not failed

row,Sequence,protein production
1,FTDITERYQHAEALSESERWIRLITDHVPALIAYLNADLVYEFTNKVYEEWYCWPRGVMLGQSLREVHSEQHYQRLESYVERALAGESVTFEFAETNINNQERYMLRSYVPNRLANGEVVGIFVLIRDITERRRTAEALHQAYQNLELRV,failed
2,FVNTFIQFKKPIIVAVNGPAIGLGASILPLCDVVWANEKAWFQTPYTTFGQSPDGCSTVMFPKIMGGASANEMLLSGRKLTAQEACGKGLVSQVFWPGTFTQEVMVRIKELASCNPVVLEESKALVRCNMKMELEQANERECEVLKKIWGSAQGMDSMLKYLQRKIDEF,failed
3,GAFDAAQLDVAQAYARHLAVSLQQSLLRQRVARLGRVYEVLSRINALVARCHEREELFDGICRVTVEVGTYRMAWVGVIDPETLNGTVVAFRGEDSDYLRQIRLSAKEDSPYRDRPACKAVRQKEIVVCNDVQEDASLKGLAPHLISYGVRSVACLPVMLDGRAFAVLALFAGDVGAFDRQEMGLLRELASDIGFALDHIQKEERLDYLAYYDS,failed
4,GDAPPEIHAIYTDITERTRLEETLTYRSELESKIVDISTRFINTPIDDLDREIEAALQAIGAFVDADRSYVFLFDDEAATMSNTHEWRTEATASTQSRLQNIPYAETPWFMARMRRREGPLRVPRLEDLPPDAAGLRQRLEAGNVQSLLVLPMLNDQDLIGFVGFDAVRQQRDWDADTVMLLRVLSDAISNALQRKTAEKEMLAAKEEAEDANRMKSVFLANMSHEIRTP,not failed
5,GEGIQPSKKLITRDYKVKEFNKIDAGTVGNIYYTQSTDGKTDLQIYGPDNIVALIQVAVKDNTLFLSIDKSKKVRNFKKMKITITSPTLNGISFKGVGDVHIENGLTTDNLDIESKGVGNVDIQSLTCQKLNVQSMGVGDVKLEGTAQIAALHSKGVGNIEAGNLRANAVEASSQGVGDITCNATESIDAAVRGVGSIKYKGSPTIKSLSKKGVGTIKNI,not failed
6,GEIIEGCRLPVLRRNQDNEDEWPLAEILSVKDISGRKLFYVHYIDFNRRLDEWVTHERLDLKKIQFPKKEAKTP,not failed
7,GEKLLNAASTRGRLCVGIDPHESLLTSWGLPVNVDGLAEFSRACVEAFADTVALVKPQVAFYERFGSAGFAILEETIQTLRERGCLVVSDAKRGDIGSTMAGYASAWLDPASPLSSDAVTVSPYLGFHSLDPVFELAEQHGRGVFVLAATSNPEARELQDQQNADGVSISQQIVDQAAALNAPYMAQGKAGNIGVVIGATLSKPPRLSTLGGAILMPGVGAQGGTASDVDEIAGDMAHLAFPNVSRSILATGPDIAEMKNSVAKN,failed
8,GGERRELKSLEQVHFAMAFEAPNYRAPDVYAAQVYAMALGGGMSSRLFQKVREERGLCYSIFAQSGAYEDTGQITIYAGTSGEEVADLAGLTVDELKRATEDMSEAEVARARAQLKAGLLMGLESPSNRAERLARLLAIWGRVPGVDEAVEKIDAVTVGAVRDYAERMAQARSALALYGPAEAAPALAQIRERLAA,failed
9,GHMAKAYKQAGVDIEAGYQAVALMKEHVQKTMRPEVLGGIGGFGGLFDLSALGYRQPVLISGTDGVGTKLKLAFLLDRHDTIGIDCVAMCVNDIIVQGAEPLFFLDYIACGKAVPEKIAAIVKGVADGCVEAGCALIGGETAEMPGMYDEDEYDLAGFAVGVAEKERLITGETIQAGDALVGLPSSGLHSNGYSLVRRIVFEQAKLSLDEIYEPLDVPLGEELLKPTRIYAKLLRSVRERFTIKGMAHITGGGLIENIPRMLPPGIGARIQLGSWPILPIFDFLREKGSLEEEEMFSVFNMGIGLVLAVSPETAAPLVEWLSERGEPAYIIGEVAKGAGVSFAGGGRA,not failed
10,GKRSHSMKRNPNAPVTKAGWLFKQASSGVKQWNKRWFVLVDRCLFYYKDEKEESILGSIPLLSFRVAAVQPSDNISRKHTFKAEHAGVRTYFFSAESPEEQEAWIQAMGEAARVQ,not failed
11,GLTNFTRDAEVLYQCAWIHDVMGLETEAMPYYEQAIANGLEGESLCGAYIGLGSTYRCIGEYDKAITVLETGLQQFPGNDVMKVFLSLAKFNVNDHESAMKLLLETVVK,failed
12,GMTGFVINTRRAPFDDWRLREALLLAFNFEFINDTVTGGVMPRITSYFSGTDLAYRPGTASGREAELLAPFAADLPPGTLEGYALPQGDGTARNRTNLRRAAQFLEQAGFRIEQGQLLGPDGAPLALRFLLRQGDSDMQTVLEIYTRALERLGIAAQIEKVDNAQYTARVAELDFDLTPFRRDLSLSPGNEQRLYWGSHSAGQPGTRNLMGAASPAIDAMIDRMLAATTEDELTAATRALDRVLTAGRYVIPIWR,not failed
13,GNNVSDADIRAIKHSERRLRNHFLPQSLFSHCGFEQAFNYKYLRIMRIAVHPQIQQQGIGAQFIHYIELLAKEQGVDFIGASFGVNPELLSFWLNAGFSTARIGFTKDKASGEHSALLIKGL,failed
14,GNSKSRNDRTETVDKEVIKAPEFDADSAYQYIQVQADFGPRVPNTQAHKECGEYLAGQLEKFGAKVYNQYADLIAYDGTILKSRNIIGAYKPESKKRILLCAHWDSRPYADNDPDPKNHHTPILGVNDGASGVGVLLEIARQIQKEQPALGIDIVFFDSEDYGIPEFYDGKYKQDTWCLGSQYWARTPHVQNYNARYGILLDMVGGKDATFYYEGYSARTARSEMKKIWKKAHELGYGKYFVKEDGGETVDDHIYVNKLARIPCVDIINYDAGNPQSSFGSFWHTVNDTMENIDRNTLKAVGQTVMDVIYNEK,not failed
15,GPVPTPPDNIQVQENFNISRIYGKWYNLAIGSTCPWLKKIMDRMTVSTLVLGEGATEAEISMTSTRWRKGVCEETSGAYEKTDTD,failed
